Reference: patent CN109678957A

Molecular target: 人重组TSLP蛋白 (recombinant human TSLP protein from E. coli GDMCC No:60083) (human) (UniProt Q969D9)
Experiment: ELISA, dilution series of the antibody on TSLP antigen protein (Fig. 4)

UniProt Q969D9, sequence (Q969D9 29-159 limits assumed): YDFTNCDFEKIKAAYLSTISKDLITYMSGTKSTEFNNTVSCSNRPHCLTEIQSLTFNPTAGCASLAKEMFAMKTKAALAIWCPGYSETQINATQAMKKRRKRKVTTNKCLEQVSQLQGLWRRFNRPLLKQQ

B1: 抗人TSLP单克隆抗体 (anti-human TSLP monoclonal antibody, from hybridoma ascites, Example 3) (antibody, IgG1, V domains shown)
VH: QIQLVQSGPELKKPGETVKISCKASGYTFTNYGMNWVKQAPGKGLKWMGWINTYTGEPTYADDFKGRFAFSLETSASTAYLQINNLKNEDMATYFCARGLTGTRGRFAYWGQGTLVTVSA
VL: DIVMTQSHKFMSTSVGDRVSITCKASQDVSTAVAWYQQKPGQSPKLLIYWASTRHTGVPDRFTGSGSGTDYTLTISSVQAEDLALYYCQQHYSTPPTFGGGTKLEIK
- 效价 (titer, dilution fold at which OD is more than 2 times the negative control) (倍 (dilution fold)): 655000
